Assay results reported in publication PMC12339479.

target: Chicken ACE2-hFc (soluble chicken ACE2 residues 18-740 fused to human IgG1 Fc) (chicken (Gallus gallus)); experiment: SPR

Row | Substance | Kd | kon
1 | SARS-CoV-2 Alpha (B.1.1.7) RBD monomer (from UniProt P0DTC2) (domain or fragment) | 409 µM | 300 M⁻¹ s⁻¹
2 | SARS-CoV-2 Gamma (P.1) RBD monomer (from UniProt P0DTC2) (domain or fragment) | 44.7 µM | 4200 M⁻¹ s⁻¹
3 | SARS-CoV-2 Omicron BA.2 RBD monomer (from UniProt P0DTC2) (domain or fragment) | 0.334 µM | 258000 M⁻¹ s⁻¹
4 | SARS-CoV-2 Omicron BA.5 RBD monomer (from UniProt P0DTC2) (domain or fragment) | 0.375 µM | 
